Data on 2 molecules can be found in publication PMC10240976.

Holding throughout (test): ITC
One assay has as its target T1, LIR[Sp] peptide.
T1 chain: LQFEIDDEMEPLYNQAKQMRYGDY
The following applies: chain shown with the change.

Another assay has as its target LC3B (purified, for ITC).
Assay [1] has as its target GABARAP (purified, for ITC) (human).
The target in assay [2] is GABARAPL2 (purified, for ITC) (human).
In assay [3] the target is GABARAPL1 (purified, for ITC).
The next assay addresses LC3C (purified, for ITC).

GABARAPL2 (purified, for ITC) (human), sequence (P60520 1-116): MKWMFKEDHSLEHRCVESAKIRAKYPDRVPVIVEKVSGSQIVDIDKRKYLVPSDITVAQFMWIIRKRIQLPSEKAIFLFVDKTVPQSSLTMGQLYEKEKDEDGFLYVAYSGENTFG

B1: GABARAP (purified, for ITC) F62W (protein)
chain: MKFVYKEEHPFEKRRSEGEKIRKKYPDRVPVIVEKAPKARIGDLDKKKYLVPSDLTVGQFYWLIRKRIHLRAEDALFFFVNNVIPPTSATMGQLYQEHHEEDFFLYIAYSDESVYG
Regarding B1, the Kd with LIR[Sp] peptide turned out to be 0.629 µM.

Take DGTLIIDLPDSY [LIR(TP[T]) peptide]: the Kd with LC3B (purified, for ITC) is over 132 µM; in assay [1], over 132 µM; in assay [2], over 132 µM; in assay [3], over 132 µM; in the assay with LC3C (purified, for ITC), 26.9 µM.
